What all share (assay): native MS
Data set [1] deals with Anchor Cell Fusion Failure protein 1.
Data set [2] concerns the target complex III (Bos taurus (endogenous in bovine mitochondria)) (UniProt P00157).
The target of another data set is complex IV.
The data set “native MS” concerns the molecule itself.

On to “Anchor Cell Fusion Failure protein 1 (natural protein)”, for which, in data set [1], the stoichiometry N amounted to 2.
“complex III (from UniProt P00157;P00129)” registered a stoichiometry N in data set [2] of 2.
With complex IV, the stoichiometry N with complex IV is 2.

B1: adenine nucleotide translocase 1 (natural protein)
chain: MSDQALSFLKDFLAGGVAAAISKTAVAPIERVKLLLQVQHASKQISAEKQYKGIIDCVVRIPKEQGFLSFWRGNLANVIRYFPTQALNFAFKDKYKQIFLGGVDRHKQFWRYFAGNLASGGAAGATSLCFVYPLDFARTRLAADVGKGAAQREFTGLGNCITKIFKSDGLRGLYQGFNVSVQGIIIYRAAYFGVYDTAKGMLPDPKNVHIIVSWMIAQTVTAVAGLVSYPFDTVRRRMMMQSGRKGADIMYTGTVDCWRKIAKDEGPKAFFKGAWSNVLRGMGGAFVLVLYDEIKKFV
In the case of B1, the “stoichiometry N” value in “native MS” came to 2.

B2: MdtB (natural protein)
chain: MQVLPPSSTGGPSRLFIMRPVATTLLMVAILLAGIIGYRALPVSALPEVDYPTIQVVTLYPGASPDVMTSAVTAPLERQFGQMSGLKQMSSQSSGGASVITLQFQLTLPLDVAEQEVQAAINAATNLLPSDLPNPPVYSKVNPADPPIMTLAVTSTAMPMTQVEDMVETRVAQKISQISGVGLVTLSGGQRPAVRVKLNAQAIAALGLTSETVRTAITGANVNSAKGSLDGPSRAVTLSANDQMQSAEEYRQLIIAYQNGAPIRLGDVATVEQGAENSWLGAWANKEQAIVMNVQRQPGANIISTADSIRQMLPQLTESLPKSVKVTVLSDRTTNIRASVDDTQFELMMAIALVVMIIYLFLRNIPATIIPGVAVPLSLIGTFAVMVFLDFSINNLTLMALTIATGFVVDDAIVVIENISRYIEKGEKPLAAALKGAGEIGFTIISLTFSLIAVLIPLLFMGDIVGRLFREFAITLAVAILISAVVSLTLTPMMCARMLSQESLRKQNRFSRASEKMFDRIIAAYGRGLAKVLNHPWLTLSVALSTLLLSVLLWVFIPKGFFPVQDNGIIQGTLQAPQSSSFANMAQRQRQVADVILQDPAVQSLTSFVGVDGTNPSLNSARLQINLKPLDERDDRVQKVIARLQTAVDKVPGVDLFLQPTQDLTIDTQVSRTQYQFTLQATSLDALSTWVPQLMEKLQQLPQLSDVSSDWQDKGLVAYVNVDRDSASRLGISMADVDNALYNAFGQRLISTIYTQANQYRVVLEHNTENTPGLAALDTIRLTSSDGGVVPLSSIAKIEQRFAPLSINHLDQFPVTTISFNVPDNYSLGDAVQAIMDTEKTLNLPVDITTQFQGSTLAFQSALGSTVWLIVAAVVAMYIVLGILYESFIHPITILSTLPTAGVGALLALLIAGSELDVIAIIGIILLIGIVKKNAIMMIDFALAAEREQGMSPREAIYQACLLRFRPILMTTLAALLGALPLMLSTGVGAELRRPLGIGMVGGLIVSQVLTLFTTPVIYLLFDRLALWTKSRFARHEEEA
Consider B2, for which, in the data set “native MS”, the “stoichiometry N” value worked out at 2.

B3: ExbB (natural protein)
chain: MGNNLMQTDLSVWGMYQHADIVVKCVMIGLILASVVTWAIFFSKSVEFFNQKRRLKREQQLLAEARSLNQANDIAADFGSKSLSLHLLNEAQNELELSEGSDDNEGIKERTSFRLERRVAAVGRQMGRGNGYLATIGAISPFVGLFGTVWGIMNSFIGIAQTQTTNLAVVAPGIAEALLATAIGLVAAIPAVVIYNVFARQIGGFKAMLGDVAAQVLLLQSRDLDLEASAAAHPVRVAQKLRAG
Turning to B3, the “stoichiometry N” value in the data set “native MS” came out at 5.

B4: CyoB (natural protein)
chain: MFGKLSLDAVPFHEPIVMVTIAGIILGGLALVGLITYFGKWTYLWKEWLTSVDHKRLGIMYIIVAIVMLLRGFADAIMMRSQQALASAGEAGFLPPHHYDQIFTAHGVIMIFFVAMPFVIGLMNLVVPLQIGARDVAFPFLNNLSFWFTVVGVILVNVSLGVGEFAQTGWLAYPPLSGIEYSPGVGVDYWIWSLQLSGIGTTLTGINFFVTILKMRAPGMTMFKMPVFTWASLCANVLIIASFPILTVTVALLTLDRYLGTHFFTNDMGGNMMMYINLIWAWGHPEVYILILPVFGVFSEIAATFSRKRLFGYTSLVWATVCITVLSFIVWLHHFFTMGAGANVNAFFGITTMIIAIPTGVKIFNWLFTMYQGRIVFHSAMLWTIGFIVTFSVGGMTGVLLAVPGADFVLHNSLFLIAHFHNVIIGGVVFGCFAGMTYWWPKAFGFKLNETWGKRAFWFWIIGFFVAFMPLYALGFMGMTRRLSQQIDPQFHTMLMIAASGAVLIALGILCLVIQMYVSIRDRDQNRDLTGDPWGGRTLEWATSSPPPFYNFAVVPHVHERDAFWEMKEKGEAYKKPDHYEEIHMPKNSGAGIVIAAFSTIFGFAMIWHIWWLAIVGFAGMIITWIVKSFDEDVDYYVPVAEIEKLENQHFDEITKAGLKNGN
For the molecule B4, in the data set “native MS”, the “stoichiometry N” value amounted to 2.

The record behind these values is PMC6522346 (Science (New York, N.Y.), 2018).
